Experimental data: patent US20250043302A1, “MUTATED HYDROXYPHENYLPYRUVATE DIOXYGENASE POLYPEPTIDE, AND CODING GENE AND USE THEREOF” (BEIJING DABEINONG BIOTECHNOLOGY CO., LTD., priority 2021, published 2025)

Test system: Arabidopsis thaliana T1 plants
Assay: Isoxaflutole tolerance of transgenic Arabidopsis thaliana T1 plants (spray, bleached leaf area grade, damage score);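 for Scores: Weighted damage index from 0 to 100 where higher means more damage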
Type: in vivo
Conditions: for Grade 0 (classification and statistics of the grade of pesticide damage; number of plants) / Grade 1 (classification and statistics of the grade of pesticide damage; number of plants) / Grade 2 (classification and statistics of the grade of pesticide damage; number of plants) / Grade 3 (classification and statistics of the grade of pesticide damage; number of plants): 16 plants; for Classification and statistics of the grade of pesticide damage: Grade 0 / Classification and statistics of the grade of pesticide damage: Grade 1 / Classification and statistics of the grade of pesticide damage: Grade 2 / Classification and statistics of the grade of pesticide damage: Grade 3: number of plants
In short: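 Read-out: per-plant damage grade 0–3 from proportion of bleached leaf area at 7 DAT (1 <50%, 2 >50%, 3 100%). Plants were T1 transformants, glufosinate-selected, plus wild-type CK, sprayed 18 days post-sowing. Rates: topramezone 25–200, isoxaflutole 35–280, mesotrione 52.5–420 g ai/ha.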

[1] = isoxaflutole 140 g ai/ha (2x field concentration), Arabidopsis thaliana T1 plants
[2] = isoxaflutole 140 g ai/ha (2×), 7 DAT, Table 2
[3] = isoxaflutole 140 g ai/ha, number of plants in grade
[4] = isoxaflutole 280 g ai/ha (4x field concentration), Arabidopsis thaliana T1 plants
[5] = isoxaflutole 280 g ai/ha (4×), 7 DAT, Table 2
[6] = isoxaflutole 280 g ai/ha, number of plants in grade

B1: AsHPPD-02: nucleotide sequence encoding Avena sativa wild-type HPPD; vector DBN11727 (nucleic acid)
DNA: ATGCCACCTACTCCAGCTACAGCTACTGGTGCTGCTGCTGCTGCCGTTACTCCTGAGCACGCTGCCAGGTCATTCCCCAGGGTGGTTCGCGTGAACCCCAGATCTGATAGGTTCCCAGTTCTGAGCTTCCACCATGTTGAGCTGTGGTGCGCTGATGCTGCTTCTGCTGCTGGCAGGTTCTCTTTCGCTCTTGGTGCTCCACTCGCTGCTAGATCTGATCTGTCTACAGGAAATAGCGCTCATGCCTCACTCCTGCTTCGCTCAGGTGCTTTGGCCTTCCTCTTCACCGCTCCATATGCTCCCCCACCTCAGGAGGCTGCTACTGCTGCTGCTACAGCCTCCATTCCAAGCTTCTCAGCTGATGCCGCTAGAACCTTCGCTGCTGCTCATGGACTTGCCGTGAGGTCTGTTGGTGTTCGCGTGGCTGATGCTGCTGAGGCTTTCAGAGTTTCCGTTGCCGGCGGAGCTAGGCCAGCTTTCGCTCCTGCTGATTTGGGACATGGTTTCGGCCTGGCTGAGGTTGAGCTTTACGGTGACGTGGTTCTCCGCTTCGTGTCTTACCCAGATGAGACTGACCTGCCTTTCCTTCCCGGCTTCGAGAGAGTTTCCTCTCCTGGTGCCGTGGATTACGGCCTGACAAGGTTCGACCACGTGGTTGGAAACGTTCCCGAGATGGCTCCAGTGATCGATTACATGAAGGGCTTCCTTGGATTCCATGAGTTCGCCGAGTTCACTGCTGAGGACGTGGGAACCACTGAGTCCGGTTTGAACTCTGTGGTTCTCGCCAACAATTCTGAGGCTGTTTTGCTCCCTCTGAATGAGCCTGTGCATGGAACCAAGAGGAGAAGCCAGATTCAAACTTACCTGGAGTACCACGGTGGCCCTGGAGTTCAGCATATCGCCCTTGCTTCTAATGATGTGTTGCGCACACTCAGAGAGATGCGCGCCAGAACCCCCATGGGAGGTTTCGAGTTCATGGCCCCACCACAGGCTAAGTACTACGAGGGCGTTAGAAGGATTGCTGGAGACGTGTTGAGCGAGGAGCAGATCAAGGAGTGCCAAGAGCTGGGTGTTCTTGTGGATAGGGATGACCAGGGCGTTCTGCTTCAAATTTTCACTAAGCCAGTGGGCGACCGCCCTACATTCTTCCTTGAGATGATTCAAAGAATCGGCTGCATGGAGAAGGATGAGGTTGGACAGGAGTACCAAAAGGGCGGATGCGGTGGCTTCGGAAAGGGTAACTTCAGCGAGTTGTTCAAGTCAATCGAGGACTACGAGAAGAGCCTCGAGGTGAAGCAGTCAGTGGTTGCCCAAAAGTCCTGA
modifications: AsHPPD-02 Nucleotide Sequence
notes: vector DBN11727
With B1 the Resistance evaluation (Table 11, isoxaflutole 140 g ai/ha (2×)) was “Non-resistant”, the “Classification and statistics of the grade of pesticide damage Grade 0” value (Table 11, isoxaflutole 140 g ai/ha (2×), number of plants at grade 0) was 0 and the “Classification and statistics of the grade of pesticide damage Grade 1” value (Table 11, isoxaflutole 140 g ai/ha (2×), number of plants at grade 1) was 1. For the same molecule, the “Classification and statistics of the grade of pesticide damage Grade 2” value (Table 11, isoxaflutole 140 g ai/ha (2×), number of plants at grade 2) was 4, the “Classification and statistics of the grade of pesticide damage Grade 3” value (Table 11, isoxaflutole 140 g ai/ha (2×), number of plants at grade 3) was 11 and the Scores (Table 11, isoxaflutole 140 g ai/ha (2×), pesticide damage score) was 88. For the same molecule, the Resistance evaluation (Table 11, isoxaflutole 280 g ai/ha (4×)) was “Non-resistant”, the “Classification and statistics of the grade of pesticide damage Grade 0” value (Table 11, isoxaflutole 280 g ai/ha (4×), number of plants at grade 0) was 0 and the “Classification and statistics of the grade of pesticide damage Grade 1” value (Table 11, isoxaflutole 280 g ai/ha (4×), number of plants at grade 1) was 0. The “Classification and statistics of the grade of pesticide damage Grade 2” value (Table 11, isoxaflutole 280 g ai/ha (4×), number of plants at grade 2) was 0, the “Classification and statistics of the grade of pesticide damage Grade 3” value (Table 11, isoxaflutole 280 g ai/ha (4×), number of plants at grade 3) was 16 and the Scores (Table 11, isoxaflutole 280 g ai/ha (4×), pesticide damage score) was 100. The “tolerance to isoxaflutole (in words)” value (in vivo) was “no tolerance”, the Resistance evaluation (isoxaflutole 140 g ai/ha) was “Non-resistant” and the Scores (isoxaflutole 140 g ai/ha) was 88. The Resistance evaluation [1] was “Non-resistant”, the Scores [1] was 88 and the “Grade 0 (classification and statistics of the grade of pesticide damage; number of plants)” value [1] was 0. The “Grade 1 (classification and statistics of the grade of pesticide damage; number of plants)” value [1] was 1, the “Grade 2 (classification and statistics of the grade of pesticide damage; number of plants)” value [1] was 4 and the “Grade 3 (classification and statistics of the grade of pesticide damage; number of plants)” value [1] was 11. For the same molecule, the Resistance evaluation [2] was “non-resistant (non-resistant plants (scores 68-100))”, the “Classification and statistics of the grade of pesticide damage Grade 0” value [3] was 0 and the “Classification and statistics of the grade of pesticide damage Grade 1” value [3] was 1. The “Classification and statistics of the grade of pesticide damage Grade 2” value [3] was 4, the “Classification and statistics of the grade of pesticide damage Grade 3” value [3] was 11 and the Resistance evaluation (isoxaflutole 280 g ai/ha) was “Non-resistant”. The Scores (isoxaflutole 280 g ai/ha) was 100, the Resistance evaluation [4] was “Non-resistant” and the Scores [4] was 100. The “Grade 0 (classification and statistics of the grade of pesticide damage; number of plants)” value [4] was 0, the “Grade 1 (classification and statistics of the grade of pesticide damage; number of plants)” value [4] was 0 and the “Grade 2 (classification and statistics of the grade of pesticide damage; number of plants)” value [4] was 0. The “Grade 3 (classification and statistics of the grade of pesticide damage; number of plants)” value [4] was 16, the Resistance evaluation [5] was “non-resistant (non-resistant plants (scores 68-100))” and the “Classification and statistics of the grade of pesticide damage Grade 0” value [6] was 0. For the same molecule, the “Classification and statistics of the grade of pesticide damage Grade 1” value [6] was 0, the “Classification and statistics of the grade of pesticide damage Grade 2” value [6] was 0 and the “Classification and statistics of the grade of pesticide damage Grade 3” value [6] was 16. For the same molecule, the “Classification and statistics of the grade of pesticide damage: Grade 0” value [2] was 0, the “Classification and statistics of the grade of pesticide damage: Grade 1” value [2] was 1 and the “Classification and statistics of the grade of pesticide damage: Grade 2” value [2] was 4. The “Classification and statistics of the grade of pesticide damage: Grade 3” value [2] was 11, the “Classification and statistics of the grade of pesticide damage: Grade 0” value [5] was 0 and the “Classification and statistics of the grade of pesticide damage: Grade 1” value [5] was 0. The “Classification and statistics of the grade of pesticide damage: Grade 2” value [5] was 0, the “Classification and statistics of the grade of pesticide damage: Grade 3” value [5] was 16 and the Scores (pesticide damage score 0-100, isoxaflutole 140 g ai/ha (2×), 7 DAT, Table 2) was 88. The Scores (pesticide damage score 0-100, isoxaflutole 280 g ai/ha (4×), 7 DAT, Table 2) was 100.
